Experimental data reported in US20260132208A1 (DOMAIN THERAPEUTICS, published 2026).
Where “and” joins values, the source holds several entries; their conditions need not be identical. Identical values can stand only once.

Key:
human CCR8 [1] = target: T1, human CCR8 (human, UniProt P51685 1-355); assay: flow cytometry, inhibition of hCCL1-AF647 (10 nM) binding to hCCR8-CHO cells
T1 construct: also called hCCR8; CC chemokine receptor 8
Experimental: The hCCR8 transfected CHO cell line was dispatched at a density of 1.105 per well in a 96-well plate. Cells were incubated for 30 min at 4° C. with or without anti-CCR8 mAb tested at 10 μg/mL then diluted at 1/3. Unbound antibodies were washed away with PBS (Gibco, Villebon-sur-yvette, France) supplemented by 2% Fetal Bovine Serum (Invitrogen by Thermofisher Scientific, Illkirch-Graffenstaden, France) and 2 mM EDTA. […] After washing unbound ligands, CCL1 bound detection is quantified on a MacsQuant16 (Miltenyi, Gladbach, Germany) (R1 channel, 5 000 events per acquisition).
For IC₅₀ determination, a concentration response curve is performed using 8 concentrations of mAb. Curves are fitted and IC₅₀ of CCL1 binding blocking activity is calculated using the sigmoidal dose-response (variable slope) model on GraphPad Prism 9 (GraphPad Software, San Diego, CA, USA).

human CCR8 [2] = target: T1, human CCR8; assay: flow cytometry, hCCR8-transfected CHO-K1 cells
Experimental: Briefly, 1.10⁵ cells per well in a 96 well plate were incubated with a dilution of unconjugated anti-CCR8 mAb at 10 μg/mL then diluted at 1/3.33, 4 dilution points (during 30 min at 4° C.). In human activated T cells model, prior to mAb incubation, cells were first incubated with 200 nM of hCCL1 (R&D Systems, Minneapolis, MN, USA) or buffer PBS (Invitrogen by Thermofisher Scientific, Illkirch-Graffenstaden, France) supplemented by 2% Fetal Bovine Serum (Invitrogen by Thermofisher Scientific, Illkirch-Graffenstaden, France) and 2 mM EDTA (Invitrogen by Thermofisher Scientific, Illkirch-Graffenstaden, France) during 1 hour at 4° C. To determine EC50 value, 8 concentrations of anti-CCR8 mAb were tested. Unbound antibodies were washed away with PBS (Invitrogen by Thermofisher Scientific, Illkirch-Graffenstaden, France) supplemented by 2% Fetal Bovine Serum (Invitrogen by Thermofisher Scientific, Illkirch-Graffenstaden, France) and 2 mM EDTA (Invitrogen by Thermofisher Scientific, Illkirch-Graffenstaden, France). Subsequently, cells are centrifuged (5 min at 400 g) and bound antibody is detected with F(ab′)2-Goat anti-Mouse IgG (H+L) Cross-Adsorbed Secondary Antibody, Alexa Fluor 488 (dilution 1/500) (Invitrogen by Thermofisher Scientific, Illkirch-Graffenstaden, France) or with F(ab′)₂-Goat anti-Human IgG Fc Secondary Antibody, PE (Invitrogen by Thermofisher Scientific, Illkirch-Graffenstaden, France) (dilution 1/1000) at 4° C. for 30 min. Detection reagent is washed away and cells are centrifuged (5 min at 400 g) and resuspended in 30 μL PBS. Bound detection antibody is quantified on a MacsQuant16 (Miltenyi, Gladbach, Germany) (B1 or B2 channel, 5000 events per acquisition). During the experiment, the respective isotype mAb controls (mouse IgG1, mouse IgG2a, mouse IgG2b, mouse IgG3 or human IgG1) (Biolegend, Amsterdam, The Netherlands) are included to exclude any unspecific binding events. EC50 values were determined via nonlinear fit “log (agonist) vs.response—Variable slope (four parameters)” function of Graphpad prism. EC50 values were not constantly determined in the same experiments.

human CCR8 [3] = target: T1, human CCR8; assay: cell-based or functional assay
human CCR8 [4] = target: T1, human CCR8; assay: cell-based or functional assay; remark: listed apart in the source
human CCR8 [5] = target: T1, human CCR8; assay: cell-based or functional assay; remark: listed apart in the source
human CCR8 [6] = target: T1, human CCR8; assay: cell-based or functional assay; remark: listed apart in the source
pm8 = target: T2, pm8 (Y15, Y16 and Y17 sulfated); assay: ELISA on coated peptide [cont.]
T2 construct: also called sulfated CCR8 N-terminal peptide pm8
Experimental: (§1) The specific binding properties of antibodies were evaluated by ELISA with coated CCR8 related peptides (500 ng/ml) in carbonate/bicarbonate buffer. Different peptides were used as described in Table 1 (see Example 1). Each anti-CCR8 mAb was tested at 1 μg/mL then diluted at 1/10. After an incubation at room temperature during 90 min, unbound mAbs were removed by washings. […] After washings, 3,3′,5,5′-tetramethylbenzidine (TMB) (Interchim, Montluçon, France) was added for 15 min. Then the optical density (OD) was determined by using a multiplate reader (Tecan, Lyon, France) and correlated with mAb reactivity on the panel of coated peptides.

pm5 = target: T3, pm5 (Y15 and Y17 sulfated; Y16 not sulfated); assay: ELISA on coated peptide [cont.]
T3 construct: also called sulfated CCR8 N-terminal peptide pm5
Experimental: as §1

pm3 = target: T4, pm3 (Y17 sulfated; Y15 and Y16 not sulfated); assay: ELISA on coated peptide [cont.]
T4 construct: also called sulfated CCR8 N-terminal peptide pm3
Experimental: as §1

pm6 = target: T5, pm6 (Y16 and Y17 sulfated; Y15 not sulfated); assay: ELISA on coated peptide [cont.]
T5 construct: also called sulfated CCR8 N-terminal peptide pm6
Experimental: as §1

T3 sequence (peptide, as listed by the source): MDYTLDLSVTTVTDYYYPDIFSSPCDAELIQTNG
T4 sequence (peptide, as listed by the source): as above
T2 sequence (peptide, as listed by the source): as above
T5 sequence (peptide, as listed by the source): as above

B1: anti-CCR8 mAb 1-4 (antibody, V domains shown)
VH: EVQLVESGGGLVQPTGSLRLSCAASGFTFNAYAMNWVRQAPGKGLEWVARIRSKSNDYATYYGDSVKDRFTISRDDSQSMLYLQMNNLKTEDTAMYYCVRGREAYYRYDGGYYAMDYWGQGTSVTVSS
VL: DIVMTQAAPSVSVTPGESVSISCTSSKSLLHSNGNTYLYWFLQRPGQSPQLLIYRMSNLASGVPDRFSGSGSGTAFTLRISRVEAEDVGVYYCMQHREYPFTFGSGTKLEIK
notes: Murine hybridoma mAb
IC50 (human CCR8 [1]): 1.93 µg/mL and 12.9 nM
% positive cells (human CCR8 [2]): 66.8%
MFI fold change to isotype ctrl (human CCR8 [2]): 5.06 fold
extrapolated top plateau of hCCL1 curve with 5 µg/mL mAb, protocol #3 (human CCR8 [3]): 313000 % of hCCL1 (100 nM)
residual hCCL1 (100 nM) Gi2 response, protocol #2, mAb 0.08 µg/mL (human CCR8 [4]): 72%
residual hCCL1 (100 nM) Gi2 response, protocol #2, mAb 0.4 µg/mL (human CCR8 [4]): 49%
residual hCCL1 (100 nM) Gi2 response, protocol #2, mAb 10 µg/mL (human CCR8 [4]): 28%
residual hCCL1 (100 nM) Gi2 response, protocol #3, mAb 0.05 µg/mL (human CCR8 [4]): 75%
residual hCCL1 (100 nM) Gi2 response, protocol #3, mAb 0.5 µg/mL (human CCR8 [4]): 36%
residual hCCL1 (100 nM) Gi2 response, protocol #3, mAb 5 µg/mL (human CCR8 [4]): 22%
IC50 of CCL1-induced hCCR8 Gi2 signaling (BRET, HEK-293) (human CCR8 [5]): 0.034 µg/mL and 0.227 nM
IC50 of CCL1-induced hCCR8 Gi2 signaling (BRET), pH 6.5 (human CCR8 [6]): 0.034 µg/ml and 0.225 nM
IC50 of CCL1-induced hCCR8 Gi2 signaling (BRET), pH 7.4 (human CCR8 [6]): 0.065 µg/ml and 0.434 nM
binding result (pm8): binds
binding result (pm5): binds
binding result (pm3): binds
binding result (pm6): binds

B2: anti-CCR8 mAb 1-8 (antibody, V domains shown)
VH: EVQLVESGGGLVQPKGSLRLSCAASGFTFNAYAMNWVRQAPGKGLEWVARIRSKSNNYATYYGDSVKDRFTISRDDSQTMLYLQMNNLKTEDTAMYYCVRGREAYYRYDGDYYAMDYWGQGTSVTVSS
VL: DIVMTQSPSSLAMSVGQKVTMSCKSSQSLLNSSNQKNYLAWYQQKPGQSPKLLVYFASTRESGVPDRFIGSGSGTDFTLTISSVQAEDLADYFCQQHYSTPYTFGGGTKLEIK
notes: Murine hybridoma mAb
IC50 (human CCR8 [1]): 2.55 µg/mL and 17.1 nM
% positive cells (human CCR8 [2]): 68.5%
MFI fold change to isotype ctrl (human CCR8 [2]): 5.12 fold
extrapolated top plateau of hCCL1 curve with 5 µg/mL mAb, protocol #3 (human CCR8 [3]): 511000 % of hCCL1 (100 nM)
residual hCCL1 (100 nM) Gi2 response, protocol #2, mAb 0.08 µg/mL (human CCR8 [4]): 70%
residual hCCL1 (100 nM) Gi2 response, protocol #2, mAb 0.4 µg/mL (human CCR8 [4]): 44%
residual hCCL1 (100 nM) Gi2 response, protocol #2, mAb 10 µg/mL (human CCR8 [4]): 51%
residual hCCL1 (100 nM) Gi2 response, protocol #3, mAb 0.05 µg/mL (human CCR8 [4]): 78%
residual hCCL1 (100 nM) Gi2 response, protocol #3, mAb 0.5 µg/mL (human CCR8 [4]): 55%
residual hCCL1 (100 nM) Gi2 response, protocol #3, mAb 5 µg/mL (human CCR8 [4]): 43%
IC50 of CCL1-induced hCCR8 Gi2 signaling (BRET, HEK-293) (human CCR8 [5]): 0.031 µg/mL and 0.209 nM
IC50 of CCL1-induced hCCR8 Gi2 signaling (BRET), pH 6.5 (human CCR8 [6]): 0.053 µg/ml and 0.355 nM
IC50 of CCL1-induced hCCR8 Gi2 signaling (BRET), pH 7.4 (human CCR8 [6]): 0.063 µg/ml and 0.421 nM
binding result (pm8): binds
binding result (pm5): binds
binding result (pm3): binds
binding result (pm6): binds

B3: anti-CCR8 mAb 1-12 (antibody, V domains shown)
VH: EVQLVETGGGLVQPKGSLKLSCAASGFTFNANAMNWVRQAPGKGLEWVARIRSKSNNYATYYADSVKDRFTISRDDSQSMLYLQMNNLKTEDTAMYYCVRGSDNYIFYAMDYWGQGTSVTVSS
VL: DIVMTQAAPSVPVTPGESVSISCRSSKSLLHSNGNTYLYWFLQRPGQSPQLLIYRMSNLASGVPDRFSGSGSGTAFTLRISRVEAEDVGVYYCMQHLEYPFTFGGGTKLEIK
notes: Murine hybridoma mAb
IC50 (human CCR8 [1]): 0.85 µg/mL and 5.72 nM
% positive cells (human CCR8 [2]): 67.8%
MFI fold change to isotype ctrl (human CCR8 [2]): 6.11 fold
extrapolated top plateau of hCCL1 curve with 5 µg/mL mAb, protocol #3 (human CCR8 [3]): 805000 % of hCCL1 (100 nM)
residual hCCL1 (100 nM) Gi2 response, protocol #2, mAb 0.08 µg/mL (human CCR8 [4]): 99%
residual hCCL1 (100 nM) Gi2 response, protocol #2, mAb 0.4 µg/mL (human CCR8 [4]): 85%
residual hCCL1 (100 nM) Gi2 response, protocol #2, mAb 10 µg/mL (human CCR8 [4]): 68%
residual hCCL1 (100 nM) Gi2 response, protocol #3, mAb 0.05 µg/mL (human CCR8 [4]): 86%
residual hCCL1 (100 nM) Gi2 response, protocol #3, mAb 0.5 µg/mL (human CCR8 [4]): 75%
residual hCCL1 (100 nM) Gi2 response, protocol #3, mAb 5 µg/mL (human CCR8 [4]): 48%
IC50 of CCL1-induced hCCR8 Gi2 signaling (BRET, HEK-293) (human CCR8 [5]): 0.015 µg/mL and 0.099 nM
IC50 of CCL1-induced hCCR8 Gi2 signaling (BRET), pH 6.5 (human CCR8 [6]): 0.031 µg/ml and 0.208 nM
IC50 of CCL1-induced hCCR8 Gi2 signaling (BRET), pH 7.4 (human CCR8 [6]): 0.017 µg/ml and 0.115 nM
binding result (pm8): binds
binding result (pm5): binds
binding result (pm3): binds
binding result (pm6): binds

B4: anti-CCR8 mAb 1-13 (antibody, V domains shown)
VH: EVQLVETGGGLVQPKGSLKLSCAASGFTFNTNAMNWVRQAPGKGLEWVARIRSKSNYYATYYADSVKDRFTISRDDSQSMLYLQMNNLKTEDTAMYYCVRGREMGNYYSMDYWGQGTSVTVSS
VL: DIVMTQAAPSVPVTPGESVSISCRSSKSLLHSNGNTYLYWFLQRPGQSPQLLIYRMSNLASGVPDRFSGSGSGTAFTLRISRVEAEDVGVYYCMQHLEYPFTFGSGTKLEIK
notes: Murine hybridoma mAb
IC50 (human CCR8 [1]): 0.36 µg/mL and 2.42 nM
% positive cells (human CCR8 [2]): 64.7%
MFI fold change to isotype ctrl (human CCR8 [2]): 5.63 fold
extrapolated top plateau of hCCL1 curve with 5 µg/mL mAb, protocol #3 (human CCR8 [3]): 149 % of hCCL1 (100 nM)
residual hCCL1 (100 nM) Gi2 response, protocol #2, mAb 0.08 µg/mL (human CCR8 [4]): 60%
residual hCCL1 (100 nM) Gi2 response, protocol #2, mAb 0.4 µg/mL (human CCR8 [4]): 35%
residual hCCL1 (100 nM) Gi2 response, protocol #2, mAb 10 µg/mL (human CCR8 [4]): 21%
residual hCCL1 (100 nM) Gi2 response, protocol #3, mAb 0.05 µg/mL (human CCR8 [4]): 69%
residual hCCL1 (100 nM) Gi2 response, protocol #3, mAb 0.5 µg/mL (human CCR8 [4]): 39%
residual hCCL1 (100 nM) Gi2 response, protocol #3, mAb 5 µg/mL (human CCR8 [4]): 38%
IC50 of CCL1-induced hCCR8 Gi2 signaling (BRET, HEK-293) (human CCR8 [5]): 0.01 µg/mL and 0.067 nM
IC50 of CCL1-induced hCCR8 Gi2 signaling (BRET), pH 6.5 (human CCR8 [6]): 0.019 µg/ml and 0.125 nM
IC50 of CCL1-induced hCCR8 Gi2 signaling (BRET), pH 7.4 (human CCR8 [6]): 0.011 µg/ml and 0.075 nM
binding result (pm8): binds
binding result (pm5): binds
binding result (pm3): binds
binding result (pm6): binds
